Experimental data: PMC12273708, “Biochemical and Biophysical Divergences between Two L‑Asparaginase II Variants: Potential for Using EcA2-K12 as a Biosimilar” (Biochemistry, 2025)
Substitutions are numbered along the chain they refer to. Numbers in names are those of the source. Blank lines part the entries; values can stand above or below the molecule they belong to.

Assays:
[1] = SEC; analytical size exclusion chromatography, TSKgel G2000SWXL, 50 uM enzyme in 25 mM sodium phosphate pH 7.4, 100 mM sodium chloride, 0.35 mL/min; hydrodynamic radius against globular standards
[2] = target: L-asparaginase II from the K12 strain (EcA2-K12) (Escherichia coli, strain K12 (strain printed; the species name is lost from the text shown)); experiment: as above
[3] = target: T1, EcA2-K12 (L-asparaginase II, K12 strain) (Escherichia coli, UniProt P00805); experiment: intrinsic tryptophan fluorescence titration (spectral center of mass), Hill fit; assay type: binding
T1 construct: gene ansB; mature protein (precursor residues 23 to 348) behind a pelB leader, pET25b, secreted from E. coli BL21(DE3), purified from medium; no tag mentioned; homotetramer with four active sites
T1 sequence (P00805 23-348): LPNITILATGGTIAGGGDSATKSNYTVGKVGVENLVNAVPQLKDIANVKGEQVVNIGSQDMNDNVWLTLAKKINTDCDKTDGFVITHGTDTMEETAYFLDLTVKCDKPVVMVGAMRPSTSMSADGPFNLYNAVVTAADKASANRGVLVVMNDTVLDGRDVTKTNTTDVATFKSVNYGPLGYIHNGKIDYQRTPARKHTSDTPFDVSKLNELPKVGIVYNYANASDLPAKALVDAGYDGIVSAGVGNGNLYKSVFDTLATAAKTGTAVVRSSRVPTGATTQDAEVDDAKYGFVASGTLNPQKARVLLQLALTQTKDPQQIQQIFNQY

[4] = target: T2, EcA2-4M (L-asparaginase II, BL21(DE3) / Elspar sequence) (Escherichia coli, UniProt P00805, N86D/S274T/T285N/V49A); experiment: as above; assay type: binding
T2 construct: gene ansB; mature protein (precursor residues 23 to 348) behind a pelB leader, pET25b, secreted from E. coli BL21(DE3), purified from medium; no tag mentioned; homotetramer with four active sites
T2 sequence (P00805 23-348 V49A/N86D/S274T/T285N): T1 sequence (P00805 23-348) with V27A, N64D, S252T, T263N

[5] = target: L-asparaginase II variant EcA2-4M (sequence of the BL21(DE3) strain and of Elspar) (Escherichia coli, strain BL21(DE3) (strain printed; the species name is lost from the text shown)); experiment: SEC; analytical size exclusion chromatography, TSKgel G2000SWXL, 50 uM enzyme in 25 mM sodium phosphate pH 7.4, 100 mM sodium chloride, 0.35 mL/min; hydrodynamic radius against globular standards
[6] = substrate: NC(=O)CC[C@H](N)C(=O)O; experiment: 1D 1H NMR progress curves, Lambert W fit of integrated Michaelis-Menten equation; assay type: biochemical, Escherichia coli; conditions: 640 μM L-Gln, 2.5 μM enzyme, 100 mM sodium phosphate pH 8.0, 10% D2O, 25 °C
Source text: (§1) 1D 1H NMR progress curves, Lambert W fit of integrated Michaelis-Menten equation on EcA2-K12 (L-asparaginase II, K12 strain)

[7] = substrate: NC(=O)C[C@H](N)C(=O)O; experiment: as above; assay type: biochemical, Escherichia coli; conditions: 160 μM L-Asn, 2.1 nM enzyme, 100 mM sodium phosphate pH 8.0, 10% D2O, 25 °C
Source text: as §1

[8] = substrate: NC(=O)CC[C@H](N)C(=O)O; experiment: as above; assay type: biochemical, Escherichia coli; conditions: 640 μM L-Gln, 1.3 μM enzyme, 100 mM sodium phosphate pH 8.0, 10% D2O, 25 °C
Source text: (§2) 1D 1H NMR progress curves, Lambert W fit of integrated Michaelis-Menten equation on EcA2-4M (L-asparaginase II, BL21(DE3) / Elspar sequence)

[9] = substrate: NC(=O)C[C@H](N)C(=O)O; experiment: as above; assay type: biochemical, Escherichia coli; conditions: 160 μM L-Asn, 1.0 nM enzyme, 100 mM sodium phosphate pH 8.0, 10% D2O, 25 °C
Source text: as §2

Molecule: L-asparaginase II from the K12 strain (EcA2-K12)
prepeak percentage of the total area (species of larger hydrodynamic radii) [1]: 13% for EcA2-K12

stoichiometry N [2]: 4
Molecule: L-asparaginase II from the K12 strain (EcA2-K12) (enzyme)

Molecule: L-asparaginase II variant EcA2-4M (sequence of the BL21(DE3) strain and of Elspar)
prepeak percentage of the total area (species of larger hydrodynamic radii) [1]: approximately 5%

Molecule: N[C@@H](CC(=O)O)C(=O)O [L-Asp]
Kd [3]: 211 ± 52 µM | Kd [4]: 66 ± 14 µM

stoichiometry N [5]: 4
Molecule: L-asparaginase II variant EcA2-4M (sequence of the BL21(DE3) strain and of Elspar) (enzyme)

B1: EcA2-K12 (L-asparaginase II, K12 strain) (Escherichia coli K-12) (protein)
chain: T1 sequence (P00805 23-348)
notes: mature protein (precursor residues 23 to 348) behind a pelB leader, pET25b, secreted from E. coli BL21(DE3), purified from medium; no tag mentioned; homotetramer with four active sites
Km [6]: 2301 ± 75 µM | Km [7]: 8 ± 3 µM

B2: EcA2-4M (L-asparaginase II, BL21(DE3) / Elspar sequence) (Escherichia coli K-12; N86D/S274T/T285N/V49A) (protein)
chain: T1 sequence (P00805 23-348) with V27A, N64D, S252T, T263N
notes: as for B1
Km [8]: 3111 ± 159 µM | Km [9]: 11 ± 5 µM
